Test results from article PMC6544384.

What was measured:
ZLD full-length (rZLD) [1] = molecular target: T1, ZLD full-length (rZLD) (UniProt Q9VWC6 1-1596); assay: competition
[2] = molecular target: T2, ZLD DBD (MBP-ZLD1117-1487) (UniProt Q9VWC6 1117-1487); assay: competition
T2 sequence: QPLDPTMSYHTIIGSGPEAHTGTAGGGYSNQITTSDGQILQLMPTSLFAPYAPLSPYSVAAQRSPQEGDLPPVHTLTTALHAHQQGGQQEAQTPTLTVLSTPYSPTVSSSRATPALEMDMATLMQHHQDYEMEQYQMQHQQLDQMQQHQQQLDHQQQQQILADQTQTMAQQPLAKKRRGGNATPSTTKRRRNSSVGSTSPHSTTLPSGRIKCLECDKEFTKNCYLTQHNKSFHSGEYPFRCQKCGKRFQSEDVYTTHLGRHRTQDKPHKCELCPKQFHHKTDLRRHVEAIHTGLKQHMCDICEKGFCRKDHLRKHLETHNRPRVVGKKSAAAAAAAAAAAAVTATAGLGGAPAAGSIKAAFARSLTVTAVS

ZLD full-length (rZLD) [3] = molecular target: T1, ZLD full-length (rZLD); assay: competition; remark: listed apart in the source
ZLD full-length (rZLD) [4] = molecular target: T1, ZLD full-length (rZLD); assay: EMSA

T1 sequence (Q9VWC6 whole entry): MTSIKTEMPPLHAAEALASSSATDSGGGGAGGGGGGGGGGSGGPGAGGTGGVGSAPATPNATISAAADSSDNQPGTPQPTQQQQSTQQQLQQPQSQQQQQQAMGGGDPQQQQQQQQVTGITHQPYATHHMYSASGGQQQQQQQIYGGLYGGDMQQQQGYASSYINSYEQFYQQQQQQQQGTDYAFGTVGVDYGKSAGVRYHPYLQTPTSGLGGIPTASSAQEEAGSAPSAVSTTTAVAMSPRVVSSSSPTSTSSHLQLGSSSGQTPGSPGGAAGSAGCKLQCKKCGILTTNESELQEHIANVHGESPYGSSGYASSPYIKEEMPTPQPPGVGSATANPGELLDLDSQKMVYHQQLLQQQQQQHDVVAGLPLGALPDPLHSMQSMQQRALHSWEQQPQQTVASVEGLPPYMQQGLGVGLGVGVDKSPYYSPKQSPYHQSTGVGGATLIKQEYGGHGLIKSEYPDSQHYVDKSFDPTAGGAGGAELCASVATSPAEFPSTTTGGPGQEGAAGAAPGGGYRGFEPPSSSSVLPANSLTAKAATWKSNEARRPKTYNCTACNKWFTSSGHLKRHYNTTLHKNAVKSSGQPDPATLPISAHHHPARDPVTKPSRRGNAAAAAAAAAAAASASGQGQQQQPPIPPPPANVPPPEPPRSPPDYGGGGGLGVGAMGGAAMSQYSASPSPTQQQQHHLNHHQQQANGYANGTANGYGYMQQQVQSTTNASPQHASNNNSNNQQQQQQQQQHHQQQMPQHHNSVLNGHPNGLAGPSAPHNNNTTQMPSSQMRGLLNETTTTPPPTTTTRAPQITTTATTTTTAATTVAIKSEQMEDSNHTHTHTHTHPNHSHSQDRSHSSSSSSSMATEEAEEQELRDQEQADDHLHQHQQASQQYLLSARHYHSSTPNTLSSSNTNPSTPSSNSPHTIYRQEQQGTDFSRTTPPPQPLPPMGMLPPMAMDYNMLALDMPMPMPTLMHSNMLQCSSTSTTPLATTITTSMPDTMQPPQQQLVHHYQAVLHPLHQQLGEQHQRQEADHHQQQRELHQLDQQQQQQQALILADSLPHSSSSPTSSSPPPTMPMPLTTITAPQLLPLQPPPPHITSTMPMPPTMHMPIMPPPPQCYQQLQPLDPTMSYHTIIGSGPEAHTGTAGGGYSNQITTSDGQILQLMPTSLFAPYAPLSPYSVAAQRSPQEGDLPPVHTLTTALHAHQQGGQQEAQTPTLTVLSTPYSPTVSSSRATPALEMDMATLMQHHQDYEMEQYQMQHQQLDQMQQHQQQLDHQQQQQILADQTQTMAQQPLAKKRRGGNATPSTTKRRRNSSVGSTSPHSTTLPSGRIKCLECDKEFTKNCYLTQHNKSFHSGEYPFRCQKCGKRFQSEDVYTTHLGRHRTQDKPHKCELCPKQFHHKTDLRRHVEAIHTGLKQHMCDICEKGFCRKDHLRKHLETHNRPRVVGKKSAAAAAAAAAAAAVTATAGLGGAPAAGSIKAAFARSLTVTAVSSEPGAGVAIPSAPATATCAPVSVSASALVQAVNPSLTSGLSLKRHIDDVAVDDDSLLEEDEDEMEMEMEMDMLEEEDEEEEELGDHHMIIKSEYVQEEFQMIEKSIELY

B1: scute wild-type (specific competitor) (dsDNA)
DNA 1: GAGAGAGACTACCTGTGGCTCACT
DNA 2: AGTGAGCCACAGGTAGTCTCTCTC
binding result (ZLD full-length (rZLD) [1]): binds | binding result [2]: binds

B2: scute mutant (nonspecific competitor) (dsDNA)
DNA 1: GAGAGAGAGTAGTTCTGGCTCACT
DNA 2: AGTGAGCCAGAACTACTCTCTCTC
binding result (ZLD full-length (rZLD) [3]): no binding

B3: bnk DNA (dsDNA)
DNA 1: TCCTTTTTTACTTTCATAGCTTAGGTAGTGATCTCAGGTAGTTTCCCGGAATTAAGTTAGGCTGGGTATCGCCTATCGGGAGCGGCTACCTGAACTTTTGGCACCAGCTGTCGGGGGTGAAAACTGGACCAGGTAGTCTTTAGAAGTGCACCTATATAAG
DNA 2: CTTATATAGGTGCACTTCTAAAGACTACCTGGTCCAGTTTTCACCCCCGACAGCTGGTGCCAAAAGTTCAGGTAGCCGCTCCCGATAGGCGATACCCAGCCTAACTTAATTCCGGGAAACTACCTGAGATCACTACCTAAGCTATGAAAGTAAAAAAGGA
binding result (ZLD full-length (rZLD) [4]): binds
